Substrate in this series: O=CC(O)COP(=O)(O)O
Kind of series: purified protein. The conditions noted are these: 1 mM ribose-5-phosphate, 10 mM ammonium sulfate (20 mM NH4), 50 mM Tris-HCl pH 8.0, 37 °C, 85 µM Snz3p, no glutaminase subunit, racemic D/L substrate. Type of series: biochemical, Saccharomyces cerevisiae.

B1: Snz3p (Saccharomyces cerevisiae S288C) (protein)
chain: MSEFKVKTGLAQMLKGGVIMDVVTPEQAIIAERAGACAVMALERIPADMRKSGQVCRMSDPRMIKEIMEAVSIPVMAKVRIGHFVEAQILEELQVDYIDESEVLTPADWTHHIEKHNFKVPFVCGAKDLGEALRRINEGAAMIRTKGEAGTGDVSEAVKHITKIKAEIQQYKENLKTESDFAAKATELRVPVDLLKTTLSEGKLPVVNFAAGGVATPADAALLMQLGCEGVFVGSGIFKSSDPEKLACAIVEATTHYDNPAKLLQVSSDLGDLMGGISIQSINEAGGKNGARLSEIGW
notes: full-length SNZ3 in pTEV5 (NheI/NcoI), His6 tag removed with rTEV, expressed in E. coli BL21-AI; assayed without Sno glutaminase subunit
In general, Km refers to the concentration of substrate that gives half-maximal velocity. What is called kcat is the number of substrate molecules converted per active site and unit of time at saturation. As for B1, the Km amounted to 290 ± 30 µM and the kcat stood at 0.0007 s⁻¹.

(Values after PMC6385983, “SNZ3 Encodes a PLP Synthase Involved in Thiamine Synthesis in Saccharomyces cerevisiae” (G3: Genes|Genomes|Genetics, 2018).)
